# Test: soluble fraction after stress (log2 fold change); higher = more stays soluble; pooled small domains, quantitative proteomics
# Conditions: stress: 75 degC
# 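Further: 20 min heating vs room temperature control held 20 min.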
row,Sequence,soluble fraction (log2)
1,HMLSSAAAIDRILAGGTAAMNHRQFDAALTSFNTVIEMRPDFAEGWNKRATLYYLIGEYERSIADVERTLA,0.183
2,HMLSTRERMSSLMAQLQVQQFMPFHRLFTISEGRMGVIVTFLAMMELVKENLIKLIQAQEYGPIHVSLG,0.467
3,HMLSVRERMSAILVSLEGERYADFTGLFDPTEGKGGVTVTFLAILELLKESMIDVVQNELYGPIHVRAA,-1.07
4,HMLSVRNRMSDVLKSLDDGEFHRFESLFNLEEGRLGVVVTFLAMLELAKEMLVEIVQNESLGPIYLKSR,0.041
5,HMLSVRQRMGELLERLADGQFHRFESLFTVEEGKLGVVVTFLGLLTLAKEQLLDIVQEGPTAPIYVKSLA,-0.569
6,HMLSVTLTVLPQQAGERLDAFAAAESTLSRSAAAKLIEDGQITVNGARAAKNYRLRAGDVIEIDEPEPI,-0.0471
7,HMLTAPMPGTIQQILVTKGQKVRSGQTLMILEAMKMEHKIKAPNSGEIISINYSLGNRVEMGANLIEI,-2.1
8,HMLTDAAAVKRSVRNLVQYGFYEKPFHPEIGSGVRDLLFENMTPFVANNLSKQIEEIITNYEPRA,-0.314
9,HMLTDMSKIRKVLKLYGKGNSKLFISTYLSLSRNTVKKYISLFEVSGKTIEEILAKSDSELELLFSG,-0.981
10,HMLTEREQDTLNFIRQYIDEQGRSPLVSEIAKGLGIKSQGTTHRYIQALVDAGLLERHVGRTRGLHLT,-0.0653
11,HMLTGADAEKATAAAQAEFPGGTVLRVETDADGTYEAHVRKADGTEVEVKMDKDFKVTSVEE,0.142
12,HMLTLAVPNSINMRLDKYLSENIDYLSRSKIQGLINDGKVTINGENEKSSYKLNGDESIVIYYEE,-0.377
13,HMLTPQEIGSRLKLVRQGLQLKQQEVAEIIGTSQLKISKIEQGATVTTPDFLKLLAFYSQSVSLDILF,-0.546
14,HMLTRQRKQLLEYLSKHTDEQMTARQIADALTAESISISAVYRNLSALEEEGILKRSIRENTREVYYQYIA,-1.57
15,HMLTSIDQMLKLAMPDSDITVSKMNGLILLTGTVKAPEDAAEAERLVQAFSAPPPGQPPVTVVSRLRTA,-0.402
16,HMLTTMSSQWKPSLDAIEILEKSGIAYSFIEDAIPEFVLYWRERGISHGAWNTKFVEHIRKQWAKFEAS,-1.73
17,HMLTTVAAQRAALHQEEDITKLREIILKLVPFWGLDGGAYADKETSIQLERQYRESFDQAVSAARRSGQA,-0.335
18,HMLTWNQLGLITKPVVFLDGTGYYARLFEAFEHMISTGFVKENYRAMMNRATSVEEAVRIASSPAPKVD,-0.0438
19,HMLVGGPDTPSKVTVSFDLGSRQAVDELTERAGAAGGRIGDIDDYPFMYQRQFDDPDGYHYSPFWMKP,-0.177
20,HMLVTQSITVPMAMSGIRLDAALAMLFPDHSRNRLKAWLDDGHILVDGAVWAGKQRLEGNEEITATLPEAK,-0.673
21,HMLYDNQLPDWAGQMVKNHGLTISPKALVILVDHIGNDLSRIENEIEKLMLNLGTRKSITEDDVEN,-1.61
22,HMLYETLKKGDQGTSVKTLQEKLKALGYLTGAADGKYGAGTETAVKSFQKAAGLTETGTADPETLSAVYAA,0.619
23,HMLYITEIQKKIMDAFLVVANESNSGTRITMNEIANKVRMTPQAIYRKHFKSVIEISDTIRD,-0.551
24,HMMEERVIEFANVLRRNGVRVSLAENMDAFRALKSLGISDPLLFRHALRATLIKRGSDIQPFEELFDFFFL,-1.42
25,HMNAAFMKAERLLAILNILLTGKRVSSTELAKKLEVSVRTVYRDVEALSEAGFPVYATMGRDGGFGLIEGF,-2.09
26,HMNADAIIGRMGKVTEPITPDGYGRVEIDGDSWKATAVGGVAIAEGTRVSVVSLDSIIITVKTV,-1.44

row,Sequence,soluble fraction (log2)
1,HMNADAIVGRTGVVTEAIAADGFGRVQIDGDSWKAKASGNNGIDVGAKVRVLRIDSIILTVEK,-1.07
2,HMNAELSTVQAAEVLNVSRPFLIKLLEDGAIPHRKVGKHRRVRMEDVMSYKAAIDTEREAVLDQLAA,-0.13
3,HMNAISIDEAKKIALAKVSGASDQHIRIEADHDDGRLVYEGEIHYGRVEYEFEIDGSTGAIIEWDADRK,-0.286
4,HMNAKKSTLQLDLLKQLLEGNKISLKDFSLSNEISIRTAQRYIEDLLEIFEKNIVKEGDFYSFIS,-3.4
5,HMNAKNPRALAIQYVFKMQMGNFLHAKTDNQQQEQERIMTLFNEENKNTILPRWGKELLSYINRN,-0.74
6,HMNDENIIIEEIKYFIKSNQIKEQEKLPSERNLSELFTVSRFSLRKALRHLVDTGYLYVKDKSGYYYQGD,-2.55
7,HMNDLIKMPYLVGQLYDDVASNQEYADFQFKITEGNDPDKQPGEIMKQDPAADIMVKKNAEVELLVNG,0.374
8,HMNDLKEDTITVQSVEYIDSDDGTMVYIKDTNHQVYKQAFKEDESLIRISAGDVLHVKYQPMDNEIHLL,-0.341
9,HMNDMPELLSIKEASQWATEYLNKNVTTSNIAYLIQYGRIRKIGNNGSTQVLKDDLVKYYKDQK,-0.11
10,HMNDMWADITINANGKATLVVHTHEIKYLGLTGHLGKMEINGTAKEPVKDSSGDVVDYYFTFTDLDASMF,0.328
11,HMNDNFTPDDLNRLARIKDLPQAKKYALELISNKSAKPMKPEKVRWFANQLQKKKSVMDITKMMYDLLLA,-0.423
12,HMNDNTAINEFKKMVFTRMVHLQIDNAELSKLSGVTNSKILALKYGNSNTLKLGDIVKVAKTLNINLNDL,-2.86
13,HMNDPFVILGVSKDASQSEILEAYKQKRAYYQERVFDEGDEGAQAARMLTQLDDAYQQAMELSHES,0.183
14,HMNDPIESLTPREREVLTLMAEGRTNAAIAAQLVVTEGAVEKHTQHIFAKLGLLPDSAVHRRVKAVLALLS,-2.35
15,HMNDPNAPITENQLKAIHVLLDKLKVDDNLKHAYIADVLQLDNEPETLKTLTKAQGSMAIERMQLLKDN,0.736
16,HMNDQLIYSDFIRQVQDGQITEVTISGLNIAGTRSDGSVFNTLRPYIEDPKLIDDLLSHNVRIQGAE,0.168
17,HMNDRERIGKRIAQLRMEAGISQYKLAELTGLAPGNIARIETGKYSTGIDILSKIGDALGYQLDFI,-2.14
18,HMNDRLAGMEGQRGEAATNFDQGEGKVKVGDTVWLAKQSDSTVIVEGDQIVVTGSENGLLKVRL,-0.25
19,HMNDTLGVNIKRLRKEKGMTQDEVAKAVYTTRYNILRYESGKMTPSSEVIERLEKALGVPTGSLAQ,-0.348
20,HMNDTSLIIDNLMLKLGNNIKNFSEIYSLLRKNLAEYGEEFIKSKVDYVLKNFNDNIEENLKKLLTE,-0.394
21,HMNDVGKVLNQLGERDRMILLLTYWDELPLKEAARILEVSENNAKIILFRARSRFASLWSAGS,-3.14
22,HMNEAVVVPDVKGLTLDEADEFFKNSKLRYNVVDSVFSKDVAPGAIVELVPVAGSKVKENRIVFVTINAQ,-0.361
23,HMNEDTEDIKNINSLVNKLTENNFDIIRDSIVKLINKEHLIPYIIETIIEKSILHHRYVHLYVSILKE,0.219
24,HMNEDYSSMVGKTGFALTILRPAGKIMIEEEVFDAVAINGYISKGQEVEVVRYENAQLYVKVK,-1.04
25,HMNEFGIPDKKLQDIETRVNSMSLEQLNAARSMLIDEQEALNSSTGSASSGRLKEIAAELSTIQKALIAIA,-0.00417
26,HMNEFNEVVPDSLEGERLDRLLAFIGNISRSEASNIIKGGEVLINGKVVTRPSFKVTLGNRVEFSIRD,-0.531

row,Sequence,soluble fraction (log2)
1,HMNEGETLYRLRAGDGRARLDKFLAAALPDISRTRFKGLIESGHVRVGGETITEPAYRVKSEAEVELTVPE,0.0126
2,HMNEIALETAIEDVESFIQMQNRNLAFSIDEDTDRAVVTVRDSDSGDVIRQIPSEEVLALAERIQDLQQD,0.0361
3,HMNEIDDYDIQLLEYLSKGVSQEAMESVFKQAGITPNSKSTIEKRISKLKIYFKALNTTHLVSITKDLGL,-0.647
4,HMNEKEAEEAAEAQTEVPDVTGMAPAQAKNMLYQAGLSSEYRGEGETVSRQLPPAGETVNRGTKAVLYL,0.0203
5,HMNEKGTNSTINEITRISKPGRRVYVGSAEIPKVKSGRGLVLISTSKGVMTGAEAAKAKLGGELLLKV,-0.000493
6,HMNEKMKEIGLRIKELRELSDISAQGMADHLKIPLETYQEYEDGKKDIPASILFEISQKMEVDMGLLLTGE,-0.476
7,HMNELTDKQILLFSNKLAHNIPFSSKYSKPGESYEEFAERLANELIDPQKVKLYKPYLEEVGFK,0.788
8,HMNEMIFNQKKIGQFFMNPETNSPMIYPLELGHKMKIIELKNGWYNVTDEKTGLNGWVKEEDFGVTKPLDS,-0.346
9,HMNENDENLRQQAIDASKEVRRWGEPVTLPPMNAHDRRIIHITLEGESDLQTESTGEGNFKSVVISLK,-0.171
10,HMNEPSSYGYAISVALDRNGLGTVKGGTLYPLLARLEQAAHVETRWEAGDGGPGRKYYTITDSGRS,-0.214
11,HMNERLKQLRLSLNLNQEEFGKWLGISKSGVSDIESGRRKVTEQHIIMLSNHNISEKWLRTGEGEMFV,-1.21
12,HMNETNKMPNLVNQTDSSAIAQLNAMELGLKITTKEESSETVLAGYVIRTEPAADTELTKNQAVTVYVS,-0.00951
13,HMNETTVPDVINQNISTGKIIIEDADLEYRIQYIPSEKSSSIGTIINSIPIYGKRVKSGTIVDLKVLG,-0.248
14,HMNETVTNQTVLDLLKEGFTSEEIIGAIENSSTRTITYDINFMRQLKAAGADVTLTTYLQKIAKKDM,-0.136
15,HMNEWSIDINLADEKQWTAKTKLSPAIIQNIIRYKNYLGGFTNLNQIKKVYGFTEANYYLLKPHLQLGK,-0.837
16,HMNFDLDSFKQRMTLDGLYFGNEKQDVIALNNLSERYQLTWFDVYQLAKETSSNHKILPKRILVKLQQ,-2.09
17,HMNFEIEVTENGKRIDSYLAEELDLSRSKVQKLIKQELVTVNGKVVSNNYNVKLGDTILVNDD,0.113
18,HMNFFQEIGNSILIELNKKNWTQSMFAHKIGVSDEVFKQIVQGKKALNAVEIAKIANTLDVDPEKLLRK,-1.08
19,HMNFTEAEQRFHFLEDQRQRGVLSLEQYRAELAQLRVTDAWGRLWMLQEQTGQWFVFHEGQWRPSQ,-0.408
20,HMNGEDVTDAIRLPQISQYASVVSAYPGVRAFLLEMQRDFARKGSVIMDGRDIGTVVLPEAEVKIFLT,-0.367
21,HMNGGPHYLRDVRTSLGLSQADLAKAVGTSANMIHYLESGERALTLKWIRRISEALNVSPMRLIN,-2.06
22,HMNGLPDLSRYTGVSIVDGLASVGSDSSFAYRAKIAETLGISDYKGSAGQNLEMIRKLGGKV,-0.517
23,HMNGTGSVYKLSGKRRNPWRAVVTNGWAYNEEKGKLVQNRVTIGYYHTRDEAIQAIANYNSSP,-1.53
24,HMNGVFIMHTPDGKVLRTEEGEEAVITLFNWSGQLLWSKTSLGQLPLPEGTQGVLQVQYKSGDQHTIKT,-1.28

# Reference: the domain aggregation screens of Martell et al. (2025)
